Experiments:
HLA-C*06:02 = assay: IEDB peptide-MHC binding, purified MHC/direct/fluorescence; filed as Kd, often an IC50 or EC50 that approximates it; ≥ and ≤ were set here for values at or beyond the usual limits of such assays
HLA-C*08:02 = assay: as above
HLA-A*02:19 [1] = assay: IEDB peptide-MHC binding, purified MHC/competitive/fluorescence; filed as Kd, often an IC50 or EC50 that approximates it; ≥ and ≤ were set here for values at or beyond the usual limits of such assays; conditions: source organism: Human immunodeficiency virus type 1 (ELI ISOLATE)
HLA-A*02:01 [2] = assay: as above
HLA-A*02:06 = assay: as above
HLA-A*02:11 [3] = assay: as above; conditions: source organism: Human immunodeficiency virus type 1 (ELI ISOLATE)
HLA-B*15:09 = assay: as above
HLA-A*02:16 = assay: as above; conditions: source organism: Human immunodeficiency virus type 1 (ELI ISOLATE)
HLA-A*02:03 = assay: as above
HLA-A*69:01 = assay: as above
HLA-C*04:01 = assay: as above
HLA-B*45:06 = assay: as above
HLA-B*83:01 = assay: as above
HLA-B*15:42 = assay: as above
HLA-B*15:01 [4] = assay: as above; conditions: source organism: Escherichia coli
HLA-B*08:01 = assay: as above; conditions: source organism: Escherichia coli
HLA-B*18:01 = assay: IEDB peptide-MHC binding, purified MHC/direct/fluorescence; filed as Kd, often an IC50 or EC50 that approximates it; ≥ and ≤ were set here for values at or beyond the usual limits of such assays
HLA-B*44:02 = assay: as above; conditions: source organism: dengue virus type 1
HLA-B*44:03 = assay: IEDB peptide-MHC binding, purified MHC/competitive/radioactivity; filed as Kd, often an IC50 or EC50 that approximates it; ≥ and ≤ were set here for values at or beyond the usual limits of such assays; conditions: source organism: Dengue virus 2 Jamaica/1409/1983
HLA-A*02:19 [5] = assay: IEDB peptide-MHC binding, purified MHC/direct/fluorescence; filed as Kd, often an IC50 or EC50 that approximates it; ≥ and ≤ were set here for values at or beyond the usual limits of such assays; conditions: source organism: Francisella tularensis subsp. tularensis FSC033
HLA-A*02:01 [6] = assay: as above; conditions: source organism: Francisella tularensis subsp. holarctica LVS
HLA-A*02:11 [7] = assay: as above; conditions: source organism: Francisella tularensis subsp. tularensis FSC033
HLA-A*02:12 = assay: as above; conditions: source organism: Francisella tularensis subsp. tularensis FSC033
HLA-B*57:01 = assay: as above; conditions: source organism: Camelpox virus M-96
HLA-A*01:01 = assay: as above; conditions: source organism: Camelpox virus M-96
HLA-B*07:02 = assay: as above; conditions: source organism: Camelpox virus M-96
HLA-B*48:01 = assay: as above; conditions: source organism: Camelpox virus M-96
HLA-B*51:01 = assay: as above; conditions: source organism: Camelpox virus M-96
HLA-A*11:01 = assay: as above; conditions: source organism: Camelpox virus M-96
HLA-B*40:01 = assay: as above; conditions: source organism: Camelpox virus M-96
HLA-B*15:01 [8] = assay: as above; conditions: source organism: Camelpox virus M-96
HLA-B*15:17 = assay: as above; conditions: source organism: Camelpox virus M-96
HLA-A*31:01 = assay: as above; conditions: source organism: Camelpox virus M-96
HLA-B*58:01 = assay: as above; conditions: source organism: Camelpox virus M-96
HLA-B*27:05 = assay: as above; conditions: source organism: Camelpox virus M-96
HLA-B*46:01 = assay: as above; conditions: source organism: Camelpox virus M-96
HLA-A*03:01 = assay: as above; conditions: source organism: Camelpox virus M-96
HLA-B*39:01 = assay: IEDB peptide-MHC binding, purified MHC/competitive/fluorescence; filed as Kd, often an IC50 or EC50 that approximates it; ≥ and ≤ were set here for values at or beyond the usual limits of such assays; conditions: source organism: Vaccinia virus WR
[9] = source organism: Mycobacterium tuberculosis C
[10] = source organism: Human immunodeficiency virus type 1 (ELI ISOLATE)
[11] = source organism: Escherichia coli
[12] = source organism: dengue virus type 2
[13] = source organism: Francisella tularensis subsp. tularensis FSC198
[14] = source organism: Vaccinia virus WR

FAPDRVGAL
Kd (HLA-C*06:02; [9]): 1.89 µM | Kd (HLA-C*08:02; [9]): 0.673 µM

FLGRIWPS
Kd (HLA-A*02:19 [1]): 0.0018 µM | Kd (HLA-A*02:01 [2]; [10]): 0.00133 µM | Kd (HLA-A*02:06; [10]): ≤ 0.0001 µM | Kd (HLA-A*02:11 [3]): ≤ 0.0001 µM | Kd (HLA-B*15:09; [10]): ≥ 20 µM | Kd (HLA-A*02:16): ≤ 0.0001 µM | Kd (HLA-A*02:03; [10]): 0.00024 µM | Kd (HLA-A*69:01; [10]): ≥ 5 µM

FVYSVSFHK
Kd (HLA-C*04:01; [9]): ≥ 5 µM | Kd (HLA-B*45:06; [9]): ≥ 5 µM | Kd (HLA-B*83:01; [9]): ≥ 5 µM | Kd (HLA-B*15:42; [9]): ≥ 5 µM

MERFSWHVA
Kd (HLA-C*04:01; [11]): ≥ 5 µM | Kd (HLA-B*45:06; [11]): 4.81 µM | Kd (HLA-B*15:01 [4]): ≥ 20 µM | Kd (HLA-B*08:01): ≥ 20 µM | Kd (HLA-B*83:01; [11]): ≥ 5 µM | Kd (HLA-B*15:42; [11]): ≥ 5 µM

SEMGANFKA
Kd (HLA-B*18:01; source organism: dengue virus type 1): 0.119 µM | Kd (HLA-B*44:02): 15.9 µM | Kd (HLA-B*44:03): 0.136 µM | Kd (HLA-C*04:01; [12]): ≥ 5 µM | Kd (HLA-B*45:06; [12]): ≥ 5 µM | Kd (HLA-B*83:01; [12]): ≥ 5 µM | Kd (HLA-B*15:42; [12]): ≥ 5 µM

YMYQYIQEL
Kd (HLA-A*02:19 [5]): 0.002 µM | Kd (HLA-A*02:01 [6]): ≤ 0.001 µM | Kd (HLA-A*02:11 [7]): ≤ 0.001 µM | Kd (HLA-C*06:02; [13]): 0.006 µM | Kd (HLA-A*02:12): 0.002 µM | Kd (HLA-C*08:02; [13]): 0.736 µM

YPAVINSNI
Kd (HLA-B*18:01; source organism: Camelpox virus M-96): ≥ 20 µM | Kd (HLA-B*57:01): ≥ 20 µM | Kd (HLA-A*01:01): ≥ 20 µM | Kd (HLA-B*07:02): 0.373 µM | Kd (HLA-B*48:01): ≥ 20 µM | Kd (HLA-B*51:01): 0.296 µM | Kd (HLA-A*11:01): ≥ 20 µM | Kd (HLA-B*40:01): ≥ 20 µM | Kd (HLA-B*15:01 [8]): ≥ 20 µM | Kd (HLA-B*15:17): ≥ 20 µM | Kd (HLA-A*31:01): ≥ 20 µM | Kd (HLA-B*58:01): ≥ 20 µM | Kd (HLA-B*27:05): ≥ 20 µM | Kd (HLA-B*46:01): ≥ 20 µM | Kd (HLA-A*03:01): ≥ 20 µM | Kd (HLA-A*02:01 [2]; [14]): ≥ 20 µM | Kd (HLA-A*02:06; [14]): 4.11 µM | Kd (HLA-B*15:09; [14]): ≥ 20 µM | Kd (HLA-B*39:01): 2.81 µM | Kd (HLA-A*02:03; [14]): 3.82 µM | Kd (HLA-A*69:01; [14]): 0.596 µM

Source: the Immune Epitope Database (IEDB)
